Assay results from article PMC11321042, “An invariant C-terminal tryptophan in McdB mediates its interaction and positioning function with carboxysomes” (Molecular Biology of the Cell, 2024).

B1: Maintenance of carboxysome distribution protein B (McdB) from Synechococcus elongatus PCC 7942, wild type (natural protein, UniProt Q8GJM6 1-152, looked up)
chain: MTDAFDRLKKRSRTPIAREGSLTTGPELSDRPLQLLPREFETFCDRYAVHAGDVIEAALDLVLLDPDLQQRLLQRLRQGNGSDRVWLGTACPRSWQQQLQQQAQDQGLSEADLLQEAIAQRLDLVLGQTTLREEVTLLRQELDQLKRKLHGW
notes: McdB of Synechococcus elongatus PCC 7942; also called Se McdB; β-McdB; source: E. coli BL21-AI, purified (HisTrap, Ulp1 cleavage, SEC); not shown: His-SUMO, N-terminal, cleaved
B2: Se McdB[∆W152] (natural protein, Synechococcus elongatus PCC 7942, UniProt Q8GJM6 1-152, looked up)
chain: MTDAFDRLKKRSRTPIAREGSLTTGPELSDRPLQLLPREFETFCDRYAVHAGDVIEAALDLVLLDPDLQQRLLQRLRQGNGSDRVWLGTACPRSWQQQLQQQAQDQGLSEADLLQEAIAQRLDLVLGQTTLREEVTLLRQELDQLKRKLHG
notes: McdB of Synechococcus elongatus PCC 7942 with the final C-terminal tryptophan W152 deleted; Parent is m1; source: E. coli BL21-AI, purified (HisTrap, Ulp1 cleavage, SEC); not shown: His-SUMO, N-terminal, cleaved

Target: the molecule itself
Experiment: SEC-MALS; 50 µl at 1.5 mg/ml on a Shodex PROTEIN KW-804 column, 0.4 ml/min, 150 mM KCl, 20 mM Tris-HCl pH 8.2

Protein | stoichiometry N
B1 | 6
B2 | 6
